Target: T1, lecithin:cholesterol acyltransferase (LCAT), purified from human plasma (human, UniProt P04180 25-440)
T1 sequence (looked up): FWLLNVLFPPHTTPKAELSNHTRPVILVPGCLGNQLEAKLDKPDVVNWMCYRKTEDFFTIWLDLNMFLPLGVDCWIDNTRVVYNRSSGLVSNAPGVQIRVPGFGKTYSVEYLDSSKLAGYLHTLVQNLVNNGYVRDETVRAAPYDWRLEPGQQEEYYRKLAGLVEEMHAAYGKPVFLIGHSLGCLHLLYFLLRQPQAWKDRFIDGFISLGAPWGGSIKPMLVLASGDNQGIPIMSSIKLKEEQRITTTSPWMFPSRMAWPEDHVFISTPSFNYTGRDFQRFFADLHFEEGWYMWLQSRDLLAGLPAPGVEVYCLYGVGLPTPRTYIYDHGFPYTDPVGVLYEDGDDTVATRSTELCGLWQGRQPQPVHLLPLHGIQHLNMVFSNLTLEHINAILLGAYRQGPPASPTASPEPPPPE
Assay: cell-based or functional assay

Binder: DVLDLFRELLEELKQKLK [peptide 221]
- ACTIVITY (%) LCAT: 12%

From patent US20080050351A1 (Pfizer, published 2008)
